The source of these data is PMC10944524.

A value given as a limit tells only on which side of the number the result lay.

Test [1] has as its target Unmasked Catcher (Masked SpyCatcher003 after cleavage by superTEV protease). In words: covalent coupling (isopeptide bond) followed by SDS-PAGE and densitometry; Masked SpyCatcher003, before or after cleavage by superTEV protease, with SpyTag003-MBP; both partners at 5 µM, 37 °C, PBS pH 7.4, time course.
For test [2], the target named is Masked SpyCatcher003 (N-terminal His6 tag-SpyCatcher003-TEV protease cleavage site-SpyTag003 D117A). The description is as above.
Test [3] has as its target DoubleCatcher (N-terminal His6 tag-TEV protease cleavage site-two SpyCatcher003 moieties connected by a (GSG)3 spacer-TEV protease cleavage site-SpyTag003 DA). As to the kind of experiment: covalent coupling (isopeptide bond) followed by SDS-PAGE and densitometry; DoubleCatcher 2.5 µM with SpyTag003-mClover3 5 µM, no TEV protease, PBS pH 7.4, 37 °C, time course.
The target in test [4] is unmasked DoubleCatcher:SpyTag003-MBP. As to the kind of experiment: covalent coupling (isopeptide bond) followed by SDS-PAGE and densitometry; step 1: DoubleCatcher with two-fold excess SpyTag003-MBP for 2 h, excess removed on bead-immobilized SpyCatcher003; step 2: superTEV protease at 34 °C, then 2 µM of the cleaved construct with 10 µM SUMO-SpyTag003, time course.

Turning to “SpyTag003 linked to maltose-binding protein (MBP)”, in test [1], the half-time of reaction (t1/2) amounted to 2.7 min and the percent reacted is > 99%. The same substance registered a percent reacted after 60 min in test [2] of 3.7%.

In test [3], “SpyTag003 linked to the green fluorescent protein mClover3” came in with a half-time of reaction (t1/2) of 0.58 min and a percent reacted after 1 h of 91%.

As to “SpyTagged Small Ubiquitin-like Modifier (N-terminal His6 tag-SUMO protein-SpyTag003)”, in test [4], the half-time of reaction (t1/2) came out at 3.6 min and the percent reacted was > 98%.
